# Test results taken from patent US20200079833A1 (AstraZeneca / MedImmune, published 2020).
# Starred links: 1 amine or outer side, 2 acyl side, 3 side chain; linkers in the order of their positions; H or OH if unused. Non-standard residues stand in square brackets, D forms with d. Groups on a side chain read outwards from the residue. Primed or numbered codes have the meaning given here. No end group written: not given here. *: point of attachment. γGlu = O=C(O)[C@H](CCC(=O)[*:2])N[*:1]; Stearoyl = CCCCCCCCCCCCCCCCCC(=O)*; Palmitoyl = CCCCCCCCCCCCCCCC(=O)*; αMeF = C[C@](N)(Cc1ccccc1)C(=O)O; αMeK = C[C@](N)(CCCCN)C(=O)O; αMeS = C[C@](N)(CO)C(=O)O; PEG2′ = not defined here; Aib = CC(C)(N)C(=O)O; Ahx = NCCCCCC(=O)O
# T1: glucose-dependent insulinotropic peptide (gastric inhibitory polypeptide) receptor (GIPR), primary cAMP assay (human, UniProt P48546 22-466)
# T1 sequence (looked up): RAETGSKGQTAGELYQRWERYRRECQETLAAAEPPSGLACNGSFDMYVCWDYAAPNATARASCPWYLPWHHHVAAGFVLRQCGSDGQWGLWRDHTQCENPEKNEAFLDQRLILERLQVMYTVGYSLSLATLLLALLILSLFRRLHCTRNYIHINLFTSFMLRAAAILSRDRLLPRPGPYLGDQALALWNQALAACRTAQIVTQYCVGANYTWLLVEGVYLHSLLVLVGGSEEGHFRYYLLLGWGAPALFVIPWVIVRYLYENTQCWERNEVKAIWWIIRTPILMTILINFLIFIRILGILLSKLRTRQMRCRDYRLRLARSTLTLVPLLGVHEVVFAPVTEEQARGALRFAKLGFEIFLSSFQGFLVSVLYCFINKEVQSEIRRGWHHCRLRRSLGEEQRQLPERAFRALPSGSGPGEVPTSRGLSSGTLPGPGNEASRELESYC
# T2: glucose-dependent insulinotropic peptide (gastric inhibitory polypeptide) receptor (GIPR) (human, UniProt P48546 22-466)
# T2 sequence (looked up): T1 sequence (looked up)
# B1: SEQ ID NO 196 (peptide)
# peptide: H[Aib]EGS[αMeF]TSDV[αMeS]S[αMeF]LEGEAA[αMeK]E[αMeF]IA[αMeF]VVK([Ahx-Ahx-Ahx-Stearoyl])GG-NH2
# modifications: N-terminus assumed
# SMILES: CCCCCCCCCCCCCCCCCC(=O)NCCCCCC(=O)NCCCCCC(=O)NCCCCCC(=O)NCCCC[C@H](NC(=O)[C@@H](NC(=O)[C@@H](NC(=O)[C@](C)(Cc1ccccc1)NC(=O)[C@H](C)NC(=O)[C@@H](NC(=O)[C@](C)(Cc1ccccc1)NC(=O)[C@H](CCC(=O)O)NC(=O)[C@](C)(CCCCN)NC(=O)[C@H](C)NC(=O)[C@H](C)NC(=O)[C@H](CCC(=O)O)NC(=O)CNC(=O)[C@H](CCC(=O)O)NC(=O)[C@H](CC(C)C)NC(=O)[C@](C)(Cc1ccccc1)NC(=O)[C@H](CO)NC(=O)[C@](C)(CO)NC(=O)[C@@H](NC(=O)[C@H](CC(=O)O)NC(=O)[C@H](CO)NC(=O)[C@@H](NC(=O)[C@](C)(Cc1ccccc1)NC(=O)[C@H](CO)NC(=O)CNC(=O)[C@H](CCC(=O)O)NC(=O)C(C)(C)NC(=O)[C@@H](N)Cc1c[nH]cn1)[C@@H](C)O)C(C)C)[C@@H](C)CC)C(C)C)C(C)C)C(=O)NCC(=O)NCC(N)=O
# Biological target: glucagon receptor (GCGR), primary cAMP assay (human, UniProt P47871 26-477)
# Sequence (P47871 26-477): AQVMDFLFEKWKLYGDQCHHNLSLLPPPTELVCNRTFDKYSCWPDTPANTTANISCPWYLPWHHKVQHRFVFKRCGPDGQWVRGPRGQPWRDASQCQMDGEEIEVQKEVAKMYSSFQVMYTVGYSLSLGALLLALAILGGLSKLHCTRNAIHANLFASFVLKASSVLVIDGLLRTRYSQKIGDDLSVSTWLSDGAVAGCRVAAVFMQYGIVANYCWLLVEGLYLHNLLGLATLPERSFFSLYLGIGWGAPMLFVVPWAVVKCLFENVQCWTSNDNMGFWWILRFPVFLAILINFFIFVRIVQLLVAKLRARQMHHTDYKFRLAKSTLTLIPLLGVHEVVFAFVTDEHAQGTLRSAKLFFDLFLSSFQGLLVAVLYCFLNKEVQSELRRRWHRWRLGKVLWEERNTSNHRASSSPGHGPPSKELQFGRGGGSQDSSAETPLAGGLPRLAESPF
# Test: cell-based or functional assay
"Primary assay EC50 (cAMP), n1 [nM]","Primary assay EC50 (cAMP), n2 [nM]",Binder
21.4,21.4,H[Aib]EGS[αMeF]TSDK([PEG2′-PEG2′-γGlu-Palmitoyl])SSYLEGEAA[αMeK]EFIK([PEG2′-PEG2′-γGlu-Palmitoyl])WVVEGG-NH2 [SEQ ID NO: 259]
21.7,21.7,H[Aib]EGS[αMeF]TSDV[αMeS]SK([PEG2′-PEG2′-γGlu-Palmitoyl])LEGEAA[αMeK]EFIAWK([PEG2′-PEG2′-γGlu-Palmitoyl])VEGG-NH2 [SEQ ID NO: 267]
21.9,21.9,H[Aib]EGS[αMeF]TSDK([PEG2′-PEG2′-γGlu-Palmitoyl])SSYLEGEAA[αMeK]EFIAK([PEG2′-PEG2′-γGlu-Palmitoyl])VVEGG-NH2 [SEQ ID NO: 260]
21.6,21.6,H[Aib]EGTFTSDVSK([PEG2′-PEG2′-γGlu-Palmitoyl])YLEGEAAEEFIK([PEG2′-PEG2′-γGlu-Palmitoyl])FVVEGG-NH2 [SEQ ID NO: 244]

# Biological target: T1, glucose-dependent insulinotropic …
# Test: cell-based or functional assay
"Primary assay EC50 (cAMP), n1 [nM]","Primary assay EC50 (cAMP), n2 [nM]",Binder
21.4,21.4,H[Aib]EGS[αMeF]TSDK([PEG2′-PEG2′-γGlu-Palmitoyl])SSYLEGEAA[αMeK]EFIK([PEG2′-PEG2′-γGlu-Palmitoyl])WVVEGG-NH2 [SEQ ID NO: 259]
21.7,21.7,H[Aib]EGS[αMeF]TSDV[αMeS]SK([PEG2′-PEG2′-γGlu-Palmitoyl])LEGEAA[αMeK]EFIAWK([PEG2′-PEG2′-γGlu-Palmitoyl])VEGG-NH2 [SEQ ID NO: 267]
21.9,21.9,H[Aib]EGS[αMeF]TSDK([PEG2′-PEG2′-γGlu-Palmitoyl])SSYLEGEAA[αMeK]EFIAK([PEG2′-PEG2′-γGlu-Palmitoyl])VVEGG-NH2 [SEQ ID NO: 260]
21.6,21.6,H[Aib]EGTFTSDVSK([PEG2′-PEG2′-γGlu-Palmitoyl])YLEGEAAEEFIK([PEG2′-PEG2′-γGlu-Palmitoyl])FVVEGG-NH2 [SEQ ID NO: 244]

# Biological target: GLP-1 receptor (GLP-1R), primary cAMP assay (human, UniProt P43220 24-463)
# Test: cell-based or functional assay
Primary assay EC50 (cAMP) Mean [nM],"Primary assay EC50 (cAMP), n1 [nM]","Primary assay EC50 (cAMP), n2 [nM]",Binder
0.313,0.339,0.287,H[Aib]EGS[αMeF]TSDK([PEG2′-PEG2′-γGlu-Palmitoyl])SSYLEGEAA[αMeK]EFIK([PEG2′-PEG2′-γGlu-Palmitoyl])WVVEGG-NH2 [SEQ ID NO: 259]
0.569,0.628,0.51,H[Aib]EGS[αMeF]TSDV[αMeS]SK([PEG2′-PEG2′-γGlu-Palmitoyl])LEGEAA[αMeK]EFIAWK([PEG2′-PEG2′-γGlu-Palmitoyl])VEGG-NH2 [SEQ ID NO: 267]
0.389,0.334,0.443,H[Aib]EGS[αMeF]TSDK([PEG2′-PEG2′-γGlu-Palmitoyl])SSYLEGEAA[αMeK]EFIAK([PEG2′-PEG2′-γGlu-Palmitoyl])VVEGG-NH2 [SEQ ID NO: 260]
12.3,7.77,16.9,H[Aib]EGTFTSDVSK([PEG2′-PEG2′-γGlu-Palmitoyl])YLEGEAAEEFIK([PEG2′-PEG2′-γGlu-Palmitoyl])FVVEGG-NH2 [SEQ ID NO: 244]

# Biological target: GLP-1 receptor (GLP-1R) (human, UniProt P43220 24-463)
# Test: cell-based or functional assay
"Primary assay EC50 (cAMP), GLP-1R n1 [nM]","Primary assay EC50 (cAMP), GLP-1R n2 [nM]","Primary assay EC50 (cAMP), Mean pM GLP-1R [pM]",Binder
0.029,0.0075,18.3,H[Aib]EGS[αMeF]TSDV[αMeS]S[αMeF]LEGEAA[αMeK]E[αMeF]IA[αMeF]VVK([PEG2′-PEG2′-PEG2′-Stearoyl])GG-NH2 [SEQ ID NO 199]
0.12,0.034,79,H[Aib]EGS[αMeF]TSDV[αMeS]S[αMeF]LEGEAA[αMeK]E[αMeF]IA[αMeF]VVK([PEG2′-Stearoyl])GG-NH2 [SEQ ID NO 197]
0.041,0.015,27.9,H[Aib]EGS[αMeF]TSDV[αMeS]S[αMeF]LEGEAA[αMeK]E[αMeF]IA[αMeF]VVK([PEG2′-PEG2′-Stearoyl])GG-NH2 [SEQ ID NO 198]
0.19,0.063,125,B1

# Biological target: glucagon receptor (GCGR) (human, UniProt P47871 26-477)
# Sequence (P47871 26-477): as above
# Test: cell-based or functional assay
"Primary assay EC50 (cAMP), Gluc-R, first run [nM]","Primary assay EC50 (cAMP), Gluc-R, second run [nM]",Binder
25,25,H[Aib]EGS[αMeF]TSDV[αMeS]S[αMeF]LEGEAA[αMeK]E[αMeF]IA[αMeF]VVK([PEG2′-PEG2′-PEG2′-Stearoyl])GG-NH2 [SEQ ID NO 199]
27,27,H[Aib]EGS[αMeF]TSDV[αMeS]S[αMeF]LEGEAA[αMeK]E[αMeF]IA[αMeF]VVK([PEG2′-Stearoyl])GG-NH2 [SEQ ID NO 197]
26,26,H[Aib]EGS[αMeF]TSDV[αMeS]S[αMeF]LEGEAA[αMeK]E[αMeF]IA[αMeF]VVK([PEG2′-PEG2′-Stearoyl])GG-NH2 [SEQ ID NO 198]
26,26,B1

# Biological target: T2, glucose-dependent insulinotropic …
# Test: cell-based or functional assay
"Primary assay EC50 (cAMP), GIP-R, first run [nM]","Primary assay EC50 (cAMP), GIP-R, second run [nM]",Binder
25,25,H[Aib]EGS[αMeF]TSDV[αMeS]S[αMeF]LEGEAA[αMeK]E[αMeF]IA[αMeF]VVK([PEG2′-PEG2′-PEG2′-Stearoyl])GG-NH2 [SEQ ID NO 199]
27,27,H[Aib]EGS[αMeF]TSDV[αMeS]S[αMeF]LEGEAA[αMeK]E[αMeF]IA[αMeF]VVK([PEG2′-Stearoyl])GG-NH2 [SEQ ID NO 197]
26,26,H[Aib]EGS[αMeF]TSDV[αMeS]S[αMeF]LEGEAA[αMeK]E[αMeF]IA[αMeF]VVK([PEG2′-PEG2′-Stearoyl])GG-NH2 [SEQ ID NO 198]
26,26,B1
